Assays:
[1] = test system: AncSZ; test: phosphorylation enrichment, bacterial display (enrichment ratio); higher = better substrate or ligand; peptides without Tyr show the background
[2] = biological target: EPHB1 (UniProt P54762); test: as above
[3] = biological target: EPHB2 (UniProt P29323); test: as above
[4] = biological target: FGFR1 (UniProt P11362); test: as above
[5] = biological target: FGFR3 (UniProt P22607); test: as above
[6] = test system: Fer (mouse); test: as above
[7] = biological target: Fes (UniProt P07332); test: as above
[8] = biological target: Fyn (UniProt P06241); test: as above
[9] = biological target: Hck (UniProt P08631); test: as above
[10] = biological target: Jak2 (UniProt O60674); test: as above
[11] = biological target: MERTK (UniProt Q12866); test: as above
[12] = test system: c-Abl (mouse); test: as above
[13] = test system: c-Src; test: as above
[14] = biological target: Grb2 SH2 (UniProt P62993); test: SH2 binding enrichment of the phosphorylated peptide, bacterial display (enrichment ratio); higher = better substrate or ligand; peptides without Tyr show the background
[15] = biological target: SHP2-C SH2; test: as above
[16] = biological target: c-Src SH2; test: as above
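For SH2 binding enrichment of the phosphorylated peptide, bacterial display in this document: peptide library displayed on the E. coli surface as eCPX fusions, selected cells deep-sequenced, score is each peptide's frequency after selection divided by its frequency in the input.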
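For phosphorylation enrichment, bacterial display in this document: 11-residue human phosphosite peptides and single-mutation variants displayed on the E. coli surface, counted by deep sequencing, each peptide's frequency after selection divided by its frequency in the unselected input library; frequency after pTyr selection over input frequency; kinase dosed for 20-30% of maximal phosphorylation in three min.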

Chain of Hck (P08631 whole entry, looked up): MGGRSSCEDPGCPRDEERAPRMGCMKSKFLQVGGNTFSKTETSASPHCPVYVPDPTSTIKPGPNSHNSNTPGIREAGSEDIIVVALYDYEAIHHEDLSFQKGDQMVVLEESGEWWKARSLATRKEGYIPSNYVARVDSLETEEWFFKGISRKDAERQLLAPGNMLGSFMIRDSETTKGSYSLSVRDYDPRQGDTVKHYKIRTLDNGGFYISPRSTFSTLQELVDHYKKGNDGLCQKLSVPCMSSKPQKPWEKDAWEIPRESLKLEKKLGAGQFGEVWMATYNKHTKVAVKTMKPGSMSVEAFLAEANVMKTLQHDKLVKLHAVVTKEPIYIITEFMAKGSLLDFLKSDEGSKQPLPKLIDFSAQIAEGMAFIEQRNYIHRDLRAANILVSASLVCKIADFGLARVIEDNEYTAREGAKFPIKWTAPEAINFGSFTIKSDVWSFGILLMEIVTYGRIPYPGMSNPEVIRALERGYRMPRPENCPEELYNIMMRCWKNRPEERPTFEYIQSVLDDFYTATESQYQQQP
Chain of Fes (P07332 whole entry, looked up): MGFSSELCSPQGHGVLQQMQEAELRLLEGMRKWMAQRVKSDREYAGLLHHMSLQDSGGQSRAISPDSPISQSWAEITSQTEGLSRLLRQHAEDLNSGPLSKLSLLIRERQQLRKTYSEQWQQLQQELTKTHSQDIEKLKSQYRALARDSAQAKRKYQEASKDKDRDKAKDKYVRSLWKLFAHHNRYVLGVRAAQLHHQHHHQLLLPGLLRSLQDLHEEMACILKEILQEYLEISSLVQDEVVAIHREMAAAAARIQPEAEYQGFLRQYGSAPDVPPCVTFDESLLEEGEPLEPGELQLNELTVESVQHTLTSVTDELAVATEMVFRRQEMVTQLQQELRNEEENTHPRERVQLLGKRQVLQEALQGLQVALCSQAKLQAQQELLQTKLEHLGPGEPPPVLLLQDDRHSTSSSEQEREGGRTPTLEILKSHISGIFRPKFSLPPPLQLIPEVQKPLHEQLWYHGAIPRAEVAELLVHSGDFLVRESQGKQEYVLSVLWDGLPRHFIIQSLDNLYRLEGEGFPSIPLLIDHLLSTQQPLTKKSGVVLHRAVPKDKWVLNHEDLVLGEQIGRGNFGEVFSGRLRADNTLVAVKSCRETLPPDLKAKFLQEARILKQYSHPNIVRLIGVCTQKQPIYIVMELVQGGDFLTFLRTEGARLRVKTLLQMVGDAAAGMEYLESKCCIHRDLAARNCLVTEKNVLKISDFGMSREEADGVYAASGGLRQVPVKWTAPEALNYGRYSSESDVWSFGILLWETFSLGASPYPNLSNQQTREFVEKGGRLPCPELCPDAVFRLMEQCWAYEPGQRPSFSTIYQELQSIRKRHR
Chain of EPHB2 (P29323 whole entry, looked up): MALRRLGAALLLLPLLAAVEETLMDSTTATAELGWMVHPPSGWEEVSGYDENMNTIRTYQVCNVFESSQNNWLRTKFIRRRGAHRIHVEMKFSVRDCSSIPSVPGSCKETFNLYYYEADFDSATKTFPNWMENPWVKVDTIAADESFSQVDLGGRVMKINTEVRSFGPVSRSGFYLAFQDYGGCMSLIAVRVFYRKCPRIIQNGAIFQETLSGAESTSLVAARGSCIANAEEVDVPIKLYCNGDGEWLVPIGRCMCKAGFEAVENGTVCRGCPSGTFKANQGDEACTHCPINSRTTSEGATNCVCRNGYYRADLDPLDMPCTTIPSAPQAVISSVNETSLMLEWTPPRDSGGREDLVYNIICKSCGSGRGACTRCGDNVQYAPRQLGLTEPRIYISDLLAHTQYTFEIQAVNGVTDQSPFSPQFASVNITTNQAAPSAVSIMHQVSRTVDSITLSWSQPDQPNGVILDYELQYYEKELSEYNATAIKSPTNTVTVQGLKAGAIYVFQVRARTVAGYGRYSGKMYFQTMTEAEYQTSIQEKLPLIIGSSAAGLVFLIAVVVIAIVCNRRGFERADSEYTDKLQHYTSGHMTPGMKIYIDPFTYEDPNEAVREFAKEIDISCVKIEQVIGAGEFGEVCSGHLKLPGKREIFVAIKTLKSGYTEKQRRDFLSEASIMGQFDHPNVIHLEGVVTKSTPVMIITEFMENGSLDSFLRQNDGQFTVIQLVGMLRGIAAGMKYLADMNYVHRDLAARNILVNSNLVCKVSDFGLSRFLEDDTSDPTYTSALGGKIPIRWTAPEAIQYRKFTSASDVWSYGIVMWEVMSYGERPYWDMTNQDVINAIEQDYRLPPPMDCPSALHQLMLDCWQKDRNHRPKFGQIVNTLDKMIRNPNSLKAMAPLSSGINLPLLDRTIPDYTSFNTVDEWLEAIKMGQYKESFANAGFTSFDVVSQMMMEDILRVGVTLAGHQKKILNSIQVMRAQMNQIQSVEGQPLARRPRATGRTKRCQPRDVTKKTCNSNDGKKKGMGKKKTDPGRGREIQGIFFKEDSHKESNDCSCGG
Chain of EPHB1 (P54762 whole entry, looked up): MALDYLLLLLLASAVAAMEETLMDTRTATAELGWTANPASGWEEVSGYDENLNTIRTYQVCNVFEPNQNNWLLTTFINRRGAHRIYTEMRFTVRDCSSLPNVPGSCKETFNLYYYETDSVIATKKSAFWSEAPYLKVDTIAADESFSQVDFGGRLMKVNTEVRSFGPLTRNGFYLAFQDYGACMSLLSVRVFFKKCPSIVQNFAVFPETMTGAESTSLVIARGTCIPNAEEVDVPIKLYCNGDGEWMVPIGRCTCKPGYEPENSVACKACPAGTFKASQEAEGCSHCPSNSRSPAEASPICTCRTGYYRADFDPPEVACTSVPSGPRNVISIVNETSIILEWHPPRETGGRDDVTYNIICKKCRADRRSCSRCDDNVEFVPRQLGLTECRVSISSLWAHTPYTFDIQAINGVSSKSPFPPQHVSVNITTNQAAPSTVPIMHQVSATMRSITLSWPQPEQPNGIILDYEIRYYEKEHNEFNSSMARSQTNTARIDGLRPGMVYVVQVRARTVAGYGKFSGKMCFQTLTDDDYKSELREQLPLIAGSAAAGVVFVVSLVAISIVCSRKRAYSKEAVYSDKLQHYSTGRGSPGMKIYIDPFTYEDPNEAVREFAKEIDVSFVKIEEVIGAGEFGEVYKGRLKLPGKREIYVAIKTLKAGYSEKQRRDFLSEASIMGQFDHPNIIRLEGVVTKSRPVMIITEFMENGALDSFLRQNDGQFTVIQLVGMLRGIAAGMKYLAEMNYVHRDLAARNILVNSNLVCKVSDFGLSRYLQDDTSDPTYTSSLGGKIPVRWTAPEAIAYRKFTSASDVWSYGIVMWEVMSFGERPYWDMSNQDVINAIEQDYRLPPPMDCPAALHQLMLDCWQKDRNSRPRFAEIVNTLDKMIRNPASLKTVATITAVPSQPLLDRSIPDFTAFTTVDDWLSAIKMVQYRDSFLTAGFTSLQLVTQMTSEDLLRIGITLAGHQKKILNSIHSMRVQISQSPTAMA
Chain of Grb2 SH2 (P62993 whole entry, looked up): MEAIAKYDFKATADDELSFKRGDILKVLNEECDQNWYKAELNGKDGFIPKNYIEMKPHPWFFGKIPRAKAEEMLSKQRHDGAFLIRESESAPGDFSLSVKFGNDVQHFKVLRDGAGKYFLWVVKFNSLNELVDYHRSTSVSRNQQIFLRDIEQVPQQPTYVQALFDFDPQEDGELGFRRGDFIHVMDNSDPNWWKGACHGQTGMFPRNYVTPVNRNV
Chain of FGFR1 (P11362 whole entry, looked up): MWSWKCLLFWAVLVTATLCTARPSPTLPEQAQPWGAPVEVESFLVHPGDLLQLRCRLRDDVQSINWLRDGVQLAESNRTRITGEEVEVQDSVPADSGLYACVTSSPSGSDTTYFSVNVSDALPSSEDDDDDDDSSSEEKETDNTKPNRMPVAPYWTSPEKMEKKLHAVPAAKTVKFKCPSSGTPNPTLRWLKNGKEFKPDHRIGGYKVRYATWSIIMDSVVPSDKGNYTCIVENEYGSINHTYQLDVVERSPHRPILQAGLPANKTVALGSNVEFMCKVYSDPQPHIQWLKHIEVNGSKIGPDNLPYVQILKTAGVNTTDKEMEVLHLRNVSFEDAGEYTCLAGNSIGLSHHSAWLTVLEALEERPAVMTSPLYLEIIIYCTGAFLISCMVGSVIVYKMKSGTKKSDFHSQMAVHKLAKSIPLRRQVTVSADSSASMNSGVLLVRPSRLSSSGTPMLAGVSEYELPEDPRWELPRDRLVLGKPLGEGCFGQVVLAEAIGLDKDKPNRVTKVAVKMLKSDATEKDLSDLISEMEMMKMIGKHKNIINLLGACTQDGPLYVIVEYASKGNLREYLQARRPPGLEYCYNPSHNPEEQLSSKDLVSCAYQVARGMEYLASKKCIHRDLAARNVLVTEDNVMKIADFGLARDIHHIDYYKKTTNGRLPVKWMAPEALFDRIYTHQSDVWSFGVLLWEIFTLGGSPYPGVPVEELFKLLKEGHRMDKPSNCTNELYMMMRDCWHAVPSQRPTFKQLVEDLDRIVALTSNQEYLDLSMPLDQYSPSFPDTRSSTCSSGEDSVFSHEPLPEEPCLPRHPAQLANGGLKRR
Chain of Fyn (P06241 whole entry, looked up): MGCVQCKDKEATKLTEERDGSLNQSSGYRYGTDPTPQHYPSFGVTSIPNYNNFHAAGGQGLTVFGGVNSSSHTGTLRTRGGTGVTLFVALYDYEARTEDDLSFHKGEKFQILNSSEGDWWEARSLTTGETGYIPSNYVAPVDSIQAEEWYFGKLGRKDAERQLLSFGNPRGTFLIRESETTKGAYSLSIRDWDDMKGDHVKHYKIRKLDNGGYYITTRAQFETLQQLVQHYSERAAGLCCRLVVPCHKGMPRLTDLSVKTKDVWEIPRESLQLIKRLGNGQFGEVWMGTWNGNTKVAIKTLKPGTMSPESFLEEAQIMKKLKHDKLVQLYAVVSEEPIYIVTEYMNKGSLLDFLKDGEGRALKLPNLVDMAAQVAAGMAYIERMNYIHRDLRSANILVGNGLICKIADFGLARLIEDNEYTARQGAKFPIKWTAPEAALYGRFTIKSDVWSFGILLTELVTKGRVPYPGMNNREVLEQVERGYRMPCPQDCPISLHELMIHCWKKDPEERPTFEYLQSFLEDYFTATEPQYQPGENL

| Sequence | phosphorylation enrichment [1] | phosphorylation enrichment [2] | phosphorylation enrichment [3] | phosphorylation enrichment [4] | phosphorylation enrichment [5] | phosphorylation enrichment [6] | phosphorylation enrichment [7] | phosphorylation enrichment [8] | phosphorylation enrichment [9] | phosphorylation enrichment [10] | phosphorylation enrichment [11] | phosphorylation enrichment [12] | phosphorylation enrichment [13] | SH2 binding enrichment [14] | SH2 binding enrichment [15] | SH2 binding enrichment [16] |
| --- | --- | --- | --- | --- | --- | --- | --- | --- | --- | --- | --- | --- | --- | --- | --- | --- |
| ETKKQYDSFTF [TMED3_Y85_YF] | 0.7 | 0.422 | 0.397 | 0.411 | 0.643 | 0.407 | 0.9 | 0.517 | 0.457 | 0.76 | 0.424 | 0.681 | 0.564 | 0.79 | 0.609 | 0.513 |
| GESQGYDIMEP [MSH2_Y863] | 1.14 | 0.541 | 0.555 | 0.424 | 0.642 | 0.441 | 0.94 | 0.454 | 0.487 | 0.827 | 0.472 | 0.605 | 0.419 | 0.683 | 0.85 | 5.63 |
| MKDLTYSSLCF [ALOX5_Y446_A447S] | 1.48 | 2.89 | 2.67 | 0.997 | 1.14 | 3.84 | 1.35 | 6.62 | 6.78 | 1.21 | 4.91 | 1.53 | 5.91 | 0.756 | 0.617 | 0.555 |
| KVNKIYHPDFI [LIG3_Y767_Y768H] | 0.542 | 0.39 | 0.417 | 0.398 | 0.539 | 0.395 | 0.627 | 0.417 | 0.488 | 0.574 | 0.443 | 0.473 | 0.43 | 0.889 | 0.999 | 0.494 |
| SELVRYDARVH [MET_Y971] | 0.595 | 0.388 | 0.494 | 0.479 | 0.627 | 0.442 | 0.739 | 0.456 | 0.581 | 0.687 | 0.443 | 0.523 | 0.433 | 0.862 | 0.737 | 0.486 |
| VGGRIYIDDAL [PKLR_Y218_G222A] | 0.86 | 0.51 | 0.497 | 0.542 | 0.612 | 0.547 | 1.06 | 0.462 | 0.486 | 0.767 | 0.402 | 0.737 | 0.419 | 0.694 | 0.772 | 0.415 |
| TPTFPYLLPKS [PLD2_Y580_YF] | 0.623 | 0.44 | 0.464 | 0.503 | 0.406 | 0.382 | 0.63 | 0.501 | 0.423 | 0.519 | 0.51 | 0.499 | 0.451 | 1.01 | 1.01 | 0.587 |
| QRHFVYFFSFL [PTEN_Y176_R173H_YF] | 1.91 | 0.983 | 0.761 | 1.69 | 1.46 | 1.11 | 1.88 | 1.07 | 1.09 | 1.46 | 0.717 | 1.31 | 0.664 | 1.48 | 0.842 | 0.911 |
| ADGLEYSRTGL [MMUT_Y287] | 0.99 | 0.555 | 1.6 | 0.602 | 0.559 | 0.514 | 0.978 | 0.544 | 0.776 | 0.855 | 0.592 | 0.878 | 0.641 | 0.758 | 0.606 | 0.373 |
| NIISFYLSRDP [CTSD_Y232_F229I] | 1.18 | 0.529 | 0.498 | 0.516 | 0.773 | 0.43 | 1.27 | 0.446 | 0.451 | 0.958 | 0.36 | 0.655 | 0.346 | 1.59 | 1.41 | 1.11 |
| APRKVYDTRDD [ZFPL1_Y215] | 0.641 | 0.45 | 0.44 | 0.427 | 0.581 | 0.403 | 0.736 | 0.408 | 0.493 | 0.614 | 0.372 | 0.485 | 0.422 | 0.84 | 0.648 | 0.372 |
| NFRNTYVNANE [KCNH2_Y475_T473N] | 0.559 | 0.373 | 0.395 | 0.434 | 0.474 | 0.358 | 0.677 | 0.404 | 0.466 | 0.577 | 0.404 | 0.467 | 0.424 | 29.8 | 1.55 | 2.64 |
| KSVEEYANCHL [TF_Y593_P589S] | 0.756 | 0.482 | 0.429 | 0.475 | 0.666 | 0.466 | 0.85 | 0.458 | 0.486 | 0.688 | 0.521 | 0.628 | 0.408 | 1.14 | 0.782 | 1.14 |
| MFVKSYTIHFS [F5_Y2153_YF] | 1 | 0.565 | 0.579 | 0.49 | 0.736 | 0.464 | 1.19 | 0.482 | 0.495 | 1.05 | 0.456 | 0.851 | 0.48 | 0.742 | 0.753 | 0.494 |
| RDLHTYIMPAH [PNMT_Y256_R254H] | 1.61 | 0.754 | 0.725 | 0.982 | 1.04 | 0.564 | 1.24 | 1.19 | 0.748 | 0.957 | 0.601 | 0.878 | 0.631 | 0.609 | 0.504 | 1.27 |
| FFCKFYNKSED [RYR1_Y4864_R4861C] | 1.3 | 0.712 | 0.601 | 0.536 | 0.939 | 0.598 | 1.74 | 0.426 | 0.552 | 1.62 | 0.395 | 1.09 | 0.489 | 0.433 | 0.586 | 0.42 |
| AKFPSYEKNKK [FOXL2_Y91_F90S] | 0.624 | 0.577 | 0.396 | 0.618 | 0.475 | 0.49 | 0.7 | 0.423 | 0.44 | 1.07 | 0.499 | 0.544 | 0.562 | 0.907 | 0.894 | 0.615 |

| Sequence | phosphorylation enrichment [1] | phosphorylation enrichment [2] | phosphorylation enrichment [3] | phosphorylation enrichment [4] | phosphorylation enrichment [5] | phosphorylation enrichment [6] | phosphorylation enrichment [7] | phosphorylation enrichment [8] | phosphorylation enrichment [9] | phosphorylation enrichment [10] | phosphorylation enrichment [11] | phosphorylation enrichment [12] | phosphorylation enrichment [13] | SH2 binding enrichment [14] | SH2 binding enrichment [15] | SH2 binding enrichment [16] |
| --- | --- | --- | --- | --- | --- | --- | --- | --- | --- | --- | --- | --- | --- | --- | --- | --- |
| LLKAGYHGVLR [TTPA_Y100] | 0.964 | 0.686 | 0.562 | 0.646 | 0.679 | 0.671 | 1.35 | 0.693 | 0.453 | 0.903 | 0.631 | 0.926 | 0.906 | 1.45 | 1.25 | 1.05 |
| GLDGSYLPRDS [SH2D1A_Y29_L31P] | 0.663 | 0.44 | 0.4 | 0.418 | 0.446 | 0.419 | 0.624 | 0.356 | 0.55 | 0.534 | 0.416 | 0.513 | 0.418 | 0.879 | 0.483 | 0.557 |
| GVMLLYYGRYN [ADGRD1_Y85_T82M] | 1.53 | 0.616 | 0.761 | 0.556 | 0.6 | 0.515 | 1.24 | 1.24 | 1.21 | 1.34 | 0.416 | 0.594 | 2.23 | 1.17 | 0.921 | 0.96 |
| CWAVKYLQMVG [AVPR2_Y117_R113W] | 1.37 | 0.622 | 0.832 | 0.495 | 0.703 | 0.504 | 1.39 | 0.413 | 0.466 | 1.26 | 0.386 | 0.817 | 0.434 | 1.26 | 1.2 | 0.92 |
| EMTAEYTCTRK [ACAD9_Y325_A326T] | 1.14 | 0.674 | 0.607 | 0.654 | 0.636 | 0.513 | 0.974 | 0.624 | 0.699 | 0.757 | 0.465 | 0.636 | 0.477 | 0.632 | 0.638 | 0.41 |
| FSEVRYMKEPY [HIPK4_Y170_V171M] | 0.852 | 0.425 | 0.496 | 0.485 | 0.72 | 0.437 | 0.988 | 0.36 | 0.536 | 0.781 | 0.463 | 0.695 | 0.432 | 1.06 | 0.757 | 0.484 |
| YAGRDYSLDEF [MYOF_Y1705_G1701A] | 1.06 | 0.658 | 0.536 | 0.54 | 0.686 | 0.588 | 1.14 | 0.595 | 0.549 | 1.37 | 0.52 | 0.928 | 0.878 | 0.757 | 0.665 | 0.909 |
| ALARKYHGGGG [HBB_Y146_H144R] | 0.372 | 0.418 | 0.307 | 0.353 | 0.33 | 0.444 | 0.408 | 0.365 | 0.317 | 0.507 | 0.337 | 0.407 | 0.435 | 0.8 | 0.549 | 0.536 |
| ELTAKYLNFFQ [P3H4_Y181_YF] | 0.871 | 0.564 | 0.479 | 0.438 | 0.681 | 0.517 | 1.05 | 0.458 | 0.396 | 0.908 | 0.385 | 0.765 | 0.454 | 3.9 | 1.16 | 0.562 |
| ALVFLSFCIIF [SIGLEC12_Y494_Y494S] | 1.05 | 0.329 | 0.489 | 0.45 | 0.603 | 0.39 | 0.865 | 0.496 | 0.466 | 0.871 | 0.449 | 0.974 | 0.439 | 1.85 | 1.39 | 0.793 |
| RRNEEYCLLDS [ITK_Y198] | 2.25 | 1 | 1.06 | 1.15 | 1.12 | 0.967 | 1.64 | 1.7 | 1.1 | 1.57 | 1.26 | 0.821 | 0.805 | 0.75 | 0.54 | 0.836 |
| PSGPAYRGAVP [ASAH1_Y43_T42A] | 0.664 | 0.74 | 0.431 | 0.809 | 0.423 | 0.533 | 0.759 | 0.539 | 0.459 | 0.736 | 0.476 | 0.758 | 0.506 | 0.72 | 0.455 | 0.49 |
| ASYGPNTRVQS [FOXL2_Y258_Y258N] | 0.537 | 0.474 | 0.407 | 0.444 | 0.407 | 0.448 | 0.596 | 0.41 | 0.454 | 0.515 | 0.435 | 0.559 | 0.478 | 0.872 | 0.582 | 0.543 |
| LAVNPYGPPDP | 0.796 | 0.461 | 0.553 | 0.436 | 0.493 | 0.44 | 0.692 | 0.454 | 0.516 | 0.709 | 0.594 | 0.726 | 0.523 | 0.934 | 0.7 | 0.528 |
| NHFKIYNLCAE [PTEN_Y68_YF] | 0.882 | 0.412 | 0.516 | 0.676 | 0.647 | 0.535 | 0.766 | 2.61 | 1.12 | 0.577 | 0.584 | 0.52 | 3.12 | 0.967 | 0.825 | 0.974 |
| LFSLGYHQSRW [GANAB_Y396] | 1.04 | 0.647 | 0.724 | 0.567 | 1.02 | 0.584 | 1.16 | 0.726 | 0.855 | 0.767 | 0.649 | 0.638 | 0.454 | 1.15 | 0.828 | 0.717 |
